Experimental findings from patent CN114907476A (SHANGHAI PHARMACEUTICALS HOLDING CO LTD, dated 2022) are described below.

Read-outs that look alike come from different tables or passages of the source.

For orientation: EC50 means the concentration that produces a half-maximal response. A higher EC50 goes with a less potent agent. The Kd is the concentration at which binding is half-saturated. A word on the koff: it is the rate constant with which the complex falls apart. A high value points to fast dissociation. For orientation: kon means a measure of how fast the partners come together. A low value points to slower complex formation.

Assay [1] deals with Jurkat-hTIGIT-NFAT-CD226细胞上过表达的人TIGIT (human). The assay is described as follows: cell-based or functional assay.
Assay [2] shares this target. Nature of the assay: cell-based or functional assay. This is another data set of the same source.
The target of assay [3] is T1, 表达于CHOK1细胞表面的人TIGIT (CHOK1/人TIGIT细胞, 吉满生物 GM-C01116) (human, UniProt Q495A1 22-244).
T1 construct: whole, on cells; Purchased cell line; also called CHOK1/hTIGIT
T1 sequence (looked up): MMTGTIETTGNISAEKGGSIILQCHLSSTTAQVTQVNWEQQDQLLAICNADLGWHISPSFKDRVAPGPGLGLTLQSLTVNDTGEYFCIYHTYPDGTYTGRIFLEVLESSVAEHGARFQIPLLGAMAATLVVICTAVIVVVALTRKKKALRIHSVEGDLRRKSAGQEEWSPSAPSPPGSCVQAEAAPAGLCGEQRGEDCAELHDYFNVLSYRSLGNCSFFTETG
The assay is described as follows: flow cytometry on CHOK1/hTIGIT cells. Background: A flow cytometer gives signals particle by particle.

In assay [4] the target is T1, 表达于CHOK1细胞表面的人TIGIT (CHOK1/人TIGIT细胞, …). Nature of the assay: flow cytometry on CHOK1/hTIGIT cells, EC50 of MFI.
For assay [5] the target is unchanged. The assay is described as follows: flow cytometry competition, inhibition of Biotinylated-CD155 (0.6μg/ml) binding to CHOK1/hTIGIT cells.
The target is the same in assay [6]. The assay is described as follows: flow cytometry competition, inhibition of Biotinylated-CD155 (0.6μg/ml) binding to CHOK1/human TIGIT cells.
Assay [7] has the same target. Nature of the assay: flow cytometry competition, EC50 of % inhibition of Biotinylated-CD155 (0.6μg/ml) binding to CHOK1/hTIGIT cells.
Assay [8] has the same target. Nature of the assay: flow cytometry competition, EC50 of % inhibition of Biotinylated-CD155 (0.6μg/ml) binding to CHOK1/human TIGIT cells.
The target in assay [9] is T2, SPH-B011-A-Antigen-his蛋白 (人TIGIT) (human, UniProt Q495A1 22-141, limits assumed).
T2 construct: Analyte of the Biacore assay; also called 抗原(人TIGIT); not shown: his tag
T2 sequence (looked up): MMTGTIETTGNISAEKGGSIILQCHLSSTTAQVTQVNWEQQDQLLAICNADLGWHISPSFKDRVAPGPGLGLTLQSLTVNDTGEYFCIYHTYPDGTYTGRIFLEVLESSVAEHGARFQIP
Nature of the assay: Biacore, antibody captured on anti-Fc CM5 chip, human TIGIT-his 100nM as analyte, 25℃. On the technique in general: In SPR one partner is held on a chip, and binding of the other changes the refractive index at the surface.

Sequence of Jurkat-hTIGIT-NFAT-CD226细胞上过表达的人TIGIT (human) (Q495A1 whole entry): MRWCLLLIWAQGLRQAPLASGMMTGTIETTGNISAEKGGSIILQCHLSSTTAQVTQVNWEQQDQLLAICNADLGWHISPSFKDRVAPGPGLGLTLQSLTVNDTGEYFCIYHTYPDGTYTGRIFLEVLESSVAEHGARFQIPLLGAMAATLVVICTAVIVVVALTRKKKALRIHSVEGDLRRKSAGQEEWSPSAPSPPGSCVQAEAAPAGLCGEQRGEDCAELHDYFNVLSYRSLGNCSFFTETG

B1: 阳性对照抗体P1 (antibody, human IgG1, kappa, V domains shown)
VH: QVQLQESGPGLVKPSETLSLTCTVSGGSVSSGIYYWSWIRQPPGKGLEWIGYIYYSGSTNYNPSLKSRVTISVDTSKNQFSLKLSSVTAADTAVYYCARDYYVSGNYYNVDYYFFGVDVWGQGTTVTVSS
VL: EIVLTQSPATLSLSPGERATLSCRASQSVSSYLAWYQQKPGQAPRLLIYDASNRATGIPARFSGSGSGTDFTLTISSLEPEDFAVYYCQQRSNWPPLFTFGPGTKVDIKR
notes: Positive control anti-TIGIT antibody
Turning to B1, the “EC50(μg/ml)of RLU” value in assay [1] was 0.633 µg/mL; in [2] it was 0.305 µg/mL. Besides, the 最大RLU in [1] came to 9080 RLU. Further, in [2], the “Max RLU” value was 10500 RLU. This molecule came in with a 最大MFI in assay [3] of 13500 MFI. For the same molecule, the EC50 in assay [4] amounted to 0.264 µg/mL; in assay [7], 0.306 µg/mL; in [8], 0.189 µg/mL. Moreover, the 最大抑制 in assay [5] was found to be 100%; in assay [6], 99.7%.

B2: 嵌合抗TIGIT抗体A0 (antibody, human IgG1, kappa, V domains shown)
VH: ELQLQQSGPELVKPGASVKISCKASGYSFTDYNMNWVKQSNGKSLEWIGVINPNHGTISYNQKFKGKATLTVDQSSSTAYMQLNSLTSEDSAVYYCANNWDVWYFDVWGTGTTVTVSS
VL: DIQMTQSPASLSASVGETVTITCRPSENIYSYLAWYRQKQGNSPQLLVYNAKALAEGVPSRFSGSGSGTQFSLKINSLQPEDFGSYYCQHHFGAPWTFGGGTKLEIKR
notes: also called B011-A-142E4C5
As for B2, the “EC50(μg/ml)of RLU” value in assay [1] is 0.922 µg/mL; in assay [2], 1.32 µg/mL. In [1], the 最大RLU amounted to 8260 RLU. Also, the “Max RLU” value in assay [2] worked out at 9270 RLU. In [3], the 最大MFI came out at 9890 MFI. Besides, the half-maximal effective concentration (EC50) is about 0.139 µg/mL in assay [4], 0.384 µg/mL in assay [7] and 0.138 µg/mL in assay [8]. The 最大抑制 is 99.2% in assay [5] and 99.8% in assay [6].

B3: 人源化抗TIGIT抗体A2 (antibody, human IgG1, kappa, V domains shown)
VH: QLQLVQSGAEVKKPGASVKVSCKASGYSFTDYNMNWVRQAPGQSLEWIGVINPNHGTISYNQKFKGRVTMTRDQSTSTAYMELNSLRSEDTAVYYCANNWDVWYFDVWGQGTLVTVSS
VL: DIQMTQSPSSLSASVGDRVTITCRPSENIYSYLAWYQQKPGKAPKLLVYNAKALAEGVPSRFSGSGSGTDFTLTISSLQPEDFATYYCQHHFGAPWTFGQGTKVEIKR
notes: Humanized
Consider B3, for which, in assay [2], the “EC50(μg/ml)of RLU” value is 1.01 µg/mL and the “Max RLU” value worked out at 9210 RLU. Moreover, the 最大MFI in [3] is 10600 MFI. In assay [4], this molecule gave an EC50 of 0.312 µg/mL. In assay [9], this molecule returned a Kd of 4.3 nM, a koff of 0.00241 s⁻¹ and a kon of 560000 M⁻¹ s⁻¹. In addition, in assay [5], the 最大抑制 is 99.6%. A half-maximal response in assay [7] (EC50) required 0.406 µg/mL.

B4: 人源化抗TIGIT抗体A4 (antibody, human IgG1, kappa, V domains shown)
VH: QLQLVQSGAEVKKPGASVKVSCKASGYSFTDYNMNWVRQAPGQSLEWIGVINPNHGTISYNQKFKGRVTMTRDQSTSTAYMELNSLRSEDTAVYYCANNWDVWYFDVWGQGTLVTVSS
VL: DIQMTQSPSSLSASVGDRVTITCRPSENIYSYLAWYQQKPGNSPKLLVYNAKALAEGVPSRFSGSGSGTQFTLTISSLQPEDFATYYCQHHFGAPWTFGGGTKVEIKR
notes: Humanized
Regarding B4, in assay [2], the “EC50(μg/ml)of RLU” value turned out to be 0.847 µg/mL and the “Max RLU” value stood at 8810 RLU. In assay [3], this molecule showed a 最大MFI of 10100 MFI. Further, it took 0.496 µg/mL to reach a half-maximal effect in assay [4] (EC50). In assay [9], this molecule displayed a Kd of 4.85 nM, a koff of 0.00257 s⁻¹ and a kon of 529000 M⁻¹ s⁻¹. In addition, in assay [5], the 最大抑制 was 99.5%. The molecule also showed an EC50 in [7] of 0.27 µg/mL.

B5: 人源化抗TIGIT抗体A1 (antibody, human IgG1, kappa, V domains shown)
VH: QLQLVQSGAEVKKPGASVKVSCKASGYSFTDYNMNWVRQAPGQSLEWIGVINPNHGTISYNQKFKGRVTMTRDQSTSTAYMELNSLRSEDTAVYYCANNWDVWYFDVWGQGTLVTVSS
VL: DIQMTQSPSSLSASVGDRVTITCRPSENIYSYLAWYQQKPGKAPKLLIYNAKALAEGVPSRFSGSGSGTDFTLTISSLQPEDFATYYCQHHFGAPWTFGQGTKVEIKR
notes: Humanized
Turning to B5, in assay [2], the “EC50(μg/ml)of RLU” value was 1.18 µg/mL and the “Max RLU” value is 8950 RLU. This molecule also displayed a 最大MFI in assay [3] of 10800 MFI. The molecule further gave an EC50 in assay [4] of 0.36 µg/mL. In assay [9], this molecule yielded a Kd of 4.62 nM, a koff of 0.00251 s⁻¹ and a kon of 544000 M⁻¹ s⁻¹. Besides, the 最大抑制 in assay [5] is 99.3%. A half-maximal response in assay [7] (EC50) required 0.43 µg/mL.

B6: 人源化抗TIGIT抗体A3 (antibody, human IgG1, kappa, V domains shown)
VH: QLQLVQSGAEVKKPGASVKVSCKASGYSFTDYNMNWVRQAPGQSLEWIGVINPNHGTISYNQKFKGRVTMTRDQSTSTAYMELNSLRSEDTAVYYCANNWDVWYFDVWGQGTLVTVSS
VL: DIQMTQSPSSLSASVGDRVTITCRPSENIYSYLAWYQQKPGNAPKLLVYNAKALAEGVPSRFSGSGSGTQFTLTISSLQPEDFATYYCQHHFGAPWTFGQGTKVEIKR
notes: Humanized
Turning to B6, in assay [2], the “EC50(μg/ml)of RLU” value is 0.782 µg/mL and the “Max RLU” value was 9370 RLU. For the same molecule, the 最大MFI in [3] is 10200 MFI. This molecule also returned an EC50 in assay [4] of 0.329 µg/mL. For the same molecule, in [9], binding was characterised by a dissociation constant (Kd) of 4.66 nM, the dissociation rate constant (koff) was found to be 0.00225 s⁻¹ and the kon worked out at 483000 M⁻¹ s⁻¹. In assay [5], the 最大抑制 is 99.6%. Besides, in assay [7], the concentration giving a half-maximal response (EC50) came to 0.427 µg/mL.

B7: 阳性对照抗体P4 (antibody, human IgG1, kappa, V domains shown)
VH: EVQLQQSGPGLVKPSQTLSLTCAISGDSVSSNSAAWNWIRQSPSRGLEWLGKTYYRFKWYSDYAVSVKGRITINPDTSKNQFSLQLNSVTPEDTAVFYCTRESTTYDLLAGPFDYWGQGTLVTVSS
VL: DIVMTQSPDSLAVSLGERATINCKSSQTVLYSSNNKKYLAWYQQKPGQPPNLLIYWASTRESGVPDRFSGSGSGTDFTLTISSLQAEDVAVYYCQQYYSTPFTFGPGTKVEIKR
notes: as for B1
As for B7, the “EC50(μg/ml)of RLU” value in [1] was 0.534 µg/mL; in [2] it was 0.357 µg/mL. The 最大RLU in assay [1] is 8840 RLU. In addition, in [2], the “Max RLU” value is 9610 RLU. The same molecule showed a 最大MFI in [3] of 10300 MFI. For the same molecule, the half-maximal effective concentration (EC50) is 0.214 µg/mL in assay [4], 0.309 µg/mL in assay [7] and 0.103 µg/mL in [8]. Besides, the 最大抑制 in [5] and in assay [6] was 100% each time.
